This assay deals with His-UPCP (HIV | human). In words: MST.

Consider 1 molecule from article PMC10154249 (2023).

The Kd is the free concentration of one partner at which half of the binding sites on the other are occupied at equilibrium, for simple one-to-one binding. The low end stands for a tighter complex, the high end for a looser complex.

B1: Flag-PTBP1 (natural protein)
chain: not shown
In turn, B1 displayed a Kd of 4.63 µM.
